These results are taken from PMC6152312, “Structural Insight into the Recognition of r(UAG) by Musashi-1 RBD2, and Construction of a Model of Musashi-1 RBD1-2 Bound to the Minimum Target RNA”.

This data set concerns the target Msi1(109-200) (RBD2+) (mouse, UniProt Q61474 109-200). Nature of the data set: NMR titration (15N-1H HSQC); 1:1 stoichiometry, slow exchange; 20 mM MES pH 6.0, 100 mM NaCl, 1 mM DTT, 5% D2O, 298 K (NMR sample; titration at 80 uM protein). To be noted: protein: recombinant; tags: N-terminal His6 cleaved by thrombin; extra GSHM at N-terminus; single strand.

Sequence of Msi1(109-200) (RBD2+) (Q61474 109-200): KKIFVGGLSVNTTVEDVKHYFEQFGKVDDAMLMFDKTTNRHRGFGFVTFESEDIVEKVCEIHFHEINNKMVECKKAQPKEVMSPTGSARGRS

B1: r(GUAGU) (ssRNA)
RNA: GUAGU
In the case of B1, the binding result is “binds”.
